Measured values taken from US7157092B1, “Acyl pseudodipeptides, preparation method and pharmaceutical compositions containing same” (Om Pharma, priority 1998, dated 2007).

Tested on: ovalbumin
Assay: Subcutaneous immunization with ovalbumin antigen: specific serum immunoglobulins (ELISA)
Format: in vivo, BALB/c mice
Settings: s.c. injections days 0 and 14, ovalbumin 50 μg, adjuvant 50 μg per injection, ± SD
Procedure: To this end, 50 BALB/c mice (females, aged 8 weeks at the beginning of treatment) were divided into 5 groups as follows:
Antigen: An ovalbumin stock solution is prepared at a concentration of 0.5 mg/ml in 0.9% NaCl.
The negative control consists of a 0.9% NaCl solution without antigen.
Antigen-Adjuvant mixture: Adjuvants are allowed to stand for 20 minutes at 37° C. before vortex treatment for 3 minutes. Then the antigen and (0.9%) NaCl are added as specified in the above Table, and the antigen/adjuvant mixture is vortexed briefly before placing it on a rotary stirrer for 15 minutes at room temperature, then the whole mixture is vortexed for 3 minutes.
Immunization regimen: Injections are scheduelled on days 0 and 14. The mixtures stated in the preceeding table are administered by subcutaeous route (75 μl on the side, 150 μl in total per animal). Blood sampling is scheduelled on days 14 and 28 (orbital puncture).
Assay for anti-ovalbumin immunoglobulins: The following serum Immunolglobulins which are specifically directed against ovalbumin are assayed in duplicate by ELISA: IgG1, IgG2a, and IgM. Briefly stated, microtiter plates (NUNC Immunoplate, Roskilde, DK) are incubated (overnight coating) at 40C together with 100 μl ovalbumin (0.5 μg) in bicarbonate buffer pH 9.6). After washing with 0.5% Tween-20 (Merck Hohenbrunn, D), sera are diluted 50-, 200- and 800-fold (diluting solution: phosphate buffered saline (PBS)+1% bovine serum albumin (BSA, Sigma, St. Louis, Mo., USA)+0.02% Tween-20)). 100 μl of each dilute serum sample are added to the wells. Incubation lasts 45 minutes at 37° C.
After a second washing step, IgG1, IgG2a and IgM specifically directed to ovalbumin are incubated for 30 minutes at 37° C. together with 100 μl of anti-IgG1 antibodies (anti-mouse rat antibody)-peroxydase conjugate (Serotec, Oxford, UK), IgG2a-peroxydase conjugate (Pharmingen, San Diego, Calif., USA) and IgM-biotin conjugate (Pharmingen, San Diego, Calif., USA), diluted beforehand in PBS/BSA/Tween buffer (250-, 1000-, 500-fold dilutions, respectively). For IgM, after an extra washing step, a 3rd incubation step is required (30 min. at 37° C.) with a 1:100 dilute solution of streptavidin-peroxydase conjugate (Dako, Glostrup, DK).
After the washing step, 100 μl of a phenylene 1,2-diamine solution (OPD, Merck, Darmstadt, GFR) are added to detect peroxydase-coupled anti-IgG1 and anti-IgG2 secondary antibodies (whereas for IgM, the reagent being used is 3′, 3′, 5′,5′-tetramethylbenzidine (TMB, Sigma, St. Louis, Mo., USA). After a 20 minute incubation period at room temperature, the reaction is stopped by adding 100 μl of 2N H2SO4. Absorbance values are read at 490 nm with a Bio-Rad 3550 model plate reader
Results of each reading at 490 nm are given in arbitrary units (A.U.) per ml. This is achieved by comparing each sample with a standard prepared from different dilutions of a sample pool collected from group B at day 28 (animals injected with ovalbumin alone). As clearly understood by this term, the sample pool diluted 50-fold is at a concentration of 1000 A.U./ml. Individual results are then corrected for the corresponding dilution factor (50, 200, or 800 times). Only the mean values of each group and the standard deviation (SD) are herein reported.

B1: ova: ovalbumin antigen (Fluka Chemie), injected alone (protein, UniProt P01012 2-386, looked up)
Ovalbumin: GSIGAASMEFCFDVFKELKVHHANENIFYCPIAIMSALAMVYLGAKDSTRTQINKVVRFDKLPGFGDSIEAQCGTSVNVHSSLRDILNQITKPNDVYSFSLASRLYAEERYPILPEYLQCVKELYRGGLEPINFQTAADQARELINSWVESQTNGIIRNVLQPSSVDSQTAMVLVNAIVFKGLWEKAFKDEDTQAMPFRVTEQESKPVQMMYQIGLFRVASMASEKMKILELPFASGTMSMLVLLPDEVSGLEQLESIINFEKLTEWTSSNVMEERKIKVYLPRMKMEEKYNLTSVLMAMGITDVFSSSANLSGISSAESLKISQAVHAAHAEINEAGREVVGSAEAGVDAASVSEEFRADHPFLFCIKHIATNAVLFFGRCVSP
- Immunoglobulins specifically raised against ovalbumin of IgG1 subclass (Day 14): 728 ± 589 Arbitrary units/ml
- Immunoglobulins specifically raised against ovalbumin of IgG2a subclass (Day 14): 5201 ± 1880 Arbitrary units/ml
- Immunoglobulins specifically raised against ovalbumin of IgM subclass (Day 14): 19423 ± 13778 Arbitrary units/ml
- Immunoglobulins specifically raised against ovalbumin of IgG1 subclass (Day 28): 47743 ± 46294 Arbitrary units/ml
- Immunoglobulins specifically raised against ovalbumin of IgG2a subclass (Day 28): 73162 ± 107954 Arbitrary units/ml
- Immunoglobulins specifically raised against ovalbumin of IgM subclass (Day 28): 47998 ± 34035 Arbitrary units/ml
